This note sets out measurements from patent publication US20100280227A1 (Genentech, published 2010).

Where “and” joins values, the source holds several entries; their conditions need not be identical. Equal values may be shown once.

Assay [1] concerns the target T1, human BR3 extracellular domain (human, UniProt Q96RJ3 1-61).
T1 construct: biotinylated where used as tracer; also called hBR3-ECD; BR3-ECD
The assay is described as follows: SPR, BR3 ECD on chip. (In SPR one partner is held on a chip, and binding of the other changes the refractive index at the surface.)
Method: After coupling, unoccupied sites on the chip were blocked by injecting 20 μl of 1M ethanolamine, pH 8.5. The running buffer was PBS containing 0.05% polysorbate 20. […] The binding surface was regenerated by injecting 20-30 μl of 10 mM glycine.HCl (pH 1.5). […] Data were analyzed using a 1:1 binding model using global fitting. The association and dissociation rate constants were fitted simultaneously (BIAevaluation software).
A high flow rate was used in order to minimize mass transport effects.

The target of assay [2] is T2, variant human BR3-Fc fusion.
T2 construct: produced in CHO cells; also called vBR3-Fc; vhBR3-Fc
The assay is described as follows: SPR, vBR3-Fc on chip.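 Also: Anti-BR3 antibodies passed over chip-bound BR3-Fc in PBS with 0.05% polysorbate 20, on and off rates fitted together globally to a 1:1 binding model.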

For assay [3] the target is unchanged. As to the kind of experiment: BIAcore, Fab over immobilised target.
Method: (§1) Each sample was analysed with 2-minute association and 20-minute dissociation. After each injection the chip was regenerated using 10 mM Glycine pH 1.5. Binding response was corrected by subtracting the RU from a blank flow cell. A 1:1 Languir model of simultaneous fitting of kₒₙ and koff was used for kinetics analysis.
The target of assay [4] is T1, human BR3 extracellular domain. As to the kind of experiment: BIAcore, Fab over immobilised target.
Method: as §1
For assay [5], the target named is T3, mouse BR3 extracellular domain (mouse, UniProt Q9D8D0 1-64).
T3 construct: also called mBR3-ECD; mBR-ECD
T3 sequence: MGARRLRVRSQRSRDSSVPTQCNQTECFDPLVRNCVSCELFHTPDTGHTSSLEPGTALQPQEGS
The assay is described as follows: phage competition ELISA. (ELISA stands for enzyme-linked immunosorbent assay.)

The target of assay [6] is T1, human BR3 extracellular domain. The assay is described as follows: phage competition ELISA.
Assay [7] has as its target T3, mouse BR3 extracellular domain. The assay is described as follows: SPR BIAcore-2000, ECD on chip, Fab injected.
From the text: (§2) Biacore measurement Surface plasmon resonance assays on a BIAcore™-2000 were used to determine the affinity of anti-BR3 Fabs. […] For kinetics analysis, 1:1 Languir model of simultaneous fitting of kₒₙ and koff was used.
The target of assay [8] is T1, human BR3 extracellular domain. The assay is described as follows: SPR BIAcore-2000, ECD on chip, Fab injected.
From the text: as §2
Assay [9] addresses T3, mouse BR3 extracellular domain. As to the kind of experiment: single spot phage competition ELISA; OD with competitor / OD without competitor; criterion met by the picked clones.
Assay [10] has as its target T1, human BR3 extracellular domain. The description is as above.
The target is the same in assay [11]. The assay is described as follows: SPR BIAcore-2000, hBR3-ECD on chip, Fab injected.
From the text: as §2
For the next assay, the target named is T4, MiniBR3 peptide (human, C-terminal amide; disulfide between cysteines 24 and 35 and a second disulfide (BR3 numbering)).
T4 construct: synthetic
As to the kind of experiment: phage competition ELISA.

Assay [12] concerns the target T3, mouse BR3 extracellular domain. The assay is described as follows: SPR BIAcore-2000, mBR3-ECD on chip, Fab injected.
From the text: as §2
The target of assay [13] is T1, human BR3 extracellular domain. As to the kind of experiment: F(ab)'2 phage solution binding competition ELISA.
Method: (§3) Third, a competition ELISA was performed. […] The wells were blocked by adding 65 ul 1% BSA for 30 minutes followed by 40 ul 1% Tween20 for another 30 minutes. The wells were washed with PBS—0.05% Tween20 5 times. […] The wells of the second plate were washed with PBS—0.5% Tween20 at least three times. 75 ul of HRP-conjugated anti-M13 antibody (1/5000 dilution with ELISA buffer) per well was added and incubated at room temperature for 30 minutes. The wells were washed again with PBS—0.05% Tween20 at least five times.
Assay [14] addresses T5, mouse BR3-Fc (mouse).
T5 construct: (BR3 ECD fused to a murine Fc); also called mBR3-Fc; murine BR3-Fc
T5 chain: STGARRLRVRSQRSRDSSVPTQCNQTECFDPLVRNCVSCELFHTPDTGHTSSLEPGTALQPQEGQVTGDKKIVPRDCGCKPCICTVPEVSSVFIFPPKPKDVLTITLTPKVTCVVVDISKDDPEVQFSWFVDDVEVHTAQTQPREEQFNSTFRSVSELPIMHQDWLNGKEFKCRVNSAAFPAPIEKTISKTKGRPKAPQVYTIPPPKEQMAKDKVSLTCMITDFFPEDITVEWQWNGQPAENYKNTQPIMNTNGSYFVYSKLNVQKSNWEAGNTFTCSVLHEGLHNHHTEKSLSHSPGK
The assay is described as follows: F(ab)'2 phage solution binding competition ELISA.
Method: as §3

Assay [15] concerns the target T3, mouse BR3 extracellular domain. As to the kind of experiment: F(ab)'2 phage solution binding competition ELISA.
Method: as §3
For assay [16], the target named is T5, mouse BR3-Fc. As to the kind of experiment: BAFF blocking ELISA: F(ab)'2 phage added to coated mBR3-Fc after mBAFF-Flag.
Method: The wells were blocked by adding 65 ul 1% BSA for 30 minutes followed by 40 ul 1% Tween20 for another 30 minutes. Next, the wells were washed five times with PBS—0.05% Tween20. […] The wells were washed five times with PBS—0.05% Tween20.
Binding was quantified by adding 75 ul/well of horse radish peroxidase (HRP)-conjugated anti-M13 antibody in PBS plus 0.5% BSA and 0.05% Tween20 at room temperature for 30 minutes (Sidhu et al., supra). The wells were washed with PBS—0.05% Tween20 at least five times.

T4 sequence (peptide, as listed by the source): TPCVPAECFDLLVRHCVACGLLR

B1: Hu9.1-88 Fab (Fab, V domains shown)
VH: EVQLVESGGGLVQPGGSLRLSCAASGFPVTGSYVSWVRQAPGKGLEWVGFIRDKANGYTTEYNPSVKGRFTISRDTSKNTLYLQMNSLRAEDTAVYYCAQVRRALDYWGQGTLVTVSS
VL: DIQMTQSPSSLSASVGDRVTITCKSSQSLLYSSNQNNYLAWYQQKPGKAPKLLIYWASTRESGVPSRFSGSGSGTDFTLTISSLQPEDFATYYCQQYYTYPYTFGQGTKVEIKR
notes: Fab
Broadly, the Kd is the constant that tells how readily two partners part at equilibrium. Usually koff stands for the first-order rate constant of dissociation. A higher koff goes with fast dissociation. A word on the kon: it is the rate constant with which the complex forms. Turning to B1, the Kd in assay [1] came to 0.736 nM; in assay [2], 1.37 nM; in assay [3], 11 nM; in [4] it was 6.3 nM. Besides, the koff stood at 0.00101 s⁻¹ in assay [1] and 0.000742 s⁻¹ in assay [2]. The kon in assay [1] stood at 1.37e+06 M⁻¹ s⁻¹; in assay [2] it was 541000 M⁻¹ s⁻¹.

B2: V3-1 Fab (Fab, V domains shown)
VH: EVQLVESGGGLVQPGGSLRLSCAASGFTISSNSIHWVRQAPGKGLEWVAWITPSDGNTDYADSVKGRFTISADTSKNTAYLQMNSLRAEDTAVYYCARRVCYNRLGVCAGGMDYWGQGTLVTVSS
VL: DIQMTQSPSSLSASVGDRVTITCRASQDVSTAVAWYQQKPGKAPKLLIYSASFLYSGVPSRFSGSGSGTDFTLTISSLQPEDFATYYCQQSRITPPTFGQGTKVEIKR
notes: soluble Fab in SPR
The IC50 is the concentration at which inhibition is half-maximal. Read a low IC50 as greater potency in that assay. On to B2, for which the results for the IC50 (in assay [5]; in assay [6]; with MiniBR3 peptide) were 9.5 nM, 9.4 nM and 5.4 nM, respectively. Also, the Kd in [7] is 2.5 nM; in assay [8], 7.9 nM; in assay [11], 7.87 nM; in assay [12], 2.5 nM. For the same molecule, the koff turned out to be 0.000195 s⁻¹ in assay [7], 0.000293 s⁻¹ in assay [8], 0.000293 s⁻¹ in assay [11] and 0.000195 s⁻¹ in assay [12]. The kon in assay [7] is 77100 M⁻¹ s⁻¹; in assay [8], 37300 M⁻¹ s⁻¹; in assay [11] it was 37300 M⁻¹ s⁻¹; in assay [12], 77100 M⁻¹ s⁻¹. In addition, the “OD450nm reduction (%)” value in assay [9] and in [10] was below 50% each time.

B3: 46 (Fab, V domains shown)
VH: EVQLVESGGGLVQPGGSLRLSCAASGFTITGSYIHWVRQAPGKGLEWVAWIYPDGGYTDYADSVKGRFTISADTSKNTAYLQMNSLRAEDTAVYYCASKPAGFGYWGQGTLVTVSS
VL: DIQMTQSPSSLSASVGDRVTITCRASQDVSTAVAWYQQKPGKAPKLLIYSASFLYSGVPSRFSGSGSGTDFTLTISSLQPEDFATYYCQQSYTTPPTFGQGTKVEIKR
notes: also called V46; clone 46 of the naive library (not V3-46)
On to B3, for which the binding result (in [13]; with mouse BR3-Fc [14]) was “binds” throughout.

B4: 89 (Fab, V domains shown)
VH: EVQLVESGGGLVQPGGSLRLSCAASGFTITGYGIHWVRQAPGKGLEWVAGITPANGYTDYADSVKGRFTISADTSKNTAYLQMNSLRAEDTAVYYCAKSFPFHYNFDYWGQGTLVTVSS
VL: DIQMTQSPSSLSASVGDRVTITCRASQDVSTAVAWYQQKPGKAPKLLIYSASFLYSGVPSRFSGSGSGTDFTLTISSLQPEDFATYYCQQSYTTPPTFGQGTKVEIKR
notes: also called V89; clone 89
Take B4: in [15], the binding result is on record as “no binding”. The half-inhibitory concentration (IC50) worked out at 5000 nM in [13] and 37 nM with mouse BR3-Fc [14]. Also, in the assay with mouse BR3-Fc [16], the “Blocking to % (phage bound in the presence of BAFF)” value came out at 90%.

B5: V3-13 Fab (Fab, V domains shown)
VH: EVQLVESGGGLVQPGGSLRLSCAASGFTISRRSIHWVRQAPGKGLEWVAWITPSDGNTDYADSVKGRFTISADTSKNTAYLQMNSLRAEDTAVYYCARRVCYSSVRGCAGAMDYWGQGTLVTVSS
VL: DIQMTQSPSSLSASVGDRVTITCRASQDVSTAVAWYQQKPGKAPKLLIYGASNLYSGVPSRFSGSGSGTDFTLTISSLQPEDFATYYCQQSHASPPTFGQGTKVEIKR
notes: soluble Fab in SPR
In the case of B5, the Kd in [7] was determined as 40 nM; in assay [8], 1200 nM. In assay [8], this molecule showed a koff of 0.0028 s⁻¹. This molecule also yielded a kon in [8] of 2300 M⁻¹ s⁻¹. Besides, the “OD450nm reduction (%)” value in assay [9] and in assay [10] was below 50% each time. Besides, the IC50 in the assay with MiniBR3 peptide came out at 473 nM.

B6: 24 (Fab, V domains shown)
VH: EVQLVESGGGLVQPGGSLRLSCAASGFTISGSSIHWVRQAPGKGLEWVGTIYPYGGNTYYADSVKGRFTISADTSKNTAYLQMNSLRAEDTAVYYCARRAFVMSGMDYWGQGTLVTVSS
VL: DIQMTQSPSSLSASVGDRVTITCRASQDVSTAVAWYQQKPGKAPKLLIYSASFLYSGVPSRFSGSGSGTDFTLTISSLQPEDFATYYCQQSYTTPPTFGQGTKVEIKR
notes: also called V24; clone 24
Consider B6, for which the binding result is “no binding” in [15] and “binds” in assay [13]. In the assay with mouse BR3-Fc [14], the IC50 was 133 nM. Moreover, the “Blocking to % (phage bound in the presence of BAFF)” value in the assay with mouse BR3-Fc [16] worked out at 90%.

B7: 75 (Fab, V domains shown)
VH: EVQLVESGGGLVQPGGSLRLSCAASGFTINGSWIHWVRQAPGKGLEWVAWITPSNGSTDYADSVKGRFTISADTSKNTAYLQMNSLRAEDTAVYYCARLSRRPWLWGMDYWGQGTLVTVSS
VL: DIQMTQSPSSLSASVGDRVTITCRASQDVSTAVAWYQQKPGKAPKLLIYSASFLYSGVPSRFSGSGSGTDFTLTISSLQPEDFATYYCQQSYTTPPTFGQGTKVEIKR
notes: also called V75; clone 75
Consider B7, for which the binding result is recorded as “no binding” in assay [15] and “binds” in assay [13]. Besides, in the assay with mouse BR3-Fc [14], the IC50 is above 10000 nM.

B8: V3-12 Fab (Fab, V domains shown)
VH: EVQLVESGGGLVQPGGSLRLSCAASGFTISSNSIHWVRQAPGKGLEWVAWITPSDGNTDYADSVKGRFTISADTSKNTAYLQMNSLRAEDTAVYYCARRVCYDRARVCAGAMDYWGQGTLVTVSS
VL: DIQMTQSPSSLSASVGDRVTITCRASQDVSTAVAWYQQKPGKAPKLLIYSASFLYSGVPSRFSGSGSGTDFTLTISSLQPEDFATYYCQQSYSTPPTFGQGTKVEIKR
notes: soluble Fab in SPR
In assay [7], B8 came in with a Kd of 36 nM, a koff of 0.0013 s⁻¹ and a kon of 36000 M⁻¹ s⁻¹. In assay [8], this molecule displayed a Kd of 72 nM, a koff of 0.00091 s⁻¹ and a kon of 13000 M⁻¹ s⁻¹. For the same molecule, the “OD450nm reduction (%)” value in assay [9] is below 50%. In addition, in [10], the “OD450nm reduction (%)” value was below 50%. This molecule also had a concentration for half-maximal inhibition (IC50) with MiniBR3 peptide of 35 nM.

B9: V3-11 Fab (Fab, V domains shown)
VH: EVQLVESGGGLVQPGGSLRLSCAASGFTISSNSIHWVRQAPGKGLEWVAWITPSDGNTDYADSVKGRFTISADTSKNTAYLQMNSLRAEDTAVYYCARRVCYNNLGVCAGAMDYWGQGTLVTVSS
VL: DIQMTQSPSSLSASVGDRVTITCRASQDVSTAVAWYQQKPGKAPKLLIYSASFLYSGVPSRFSGSGSGTDFTLTISSLQPEDFATYYCQQTSTSPPTFGQGTKVEIKR
notes: soluble Fab in SPR
In assay [7], B9 gave an equilibrium dissociation constant (Kd) of 20.4 nM, a koff of 0.000888 s⁻¹ and a kon of 43600 M⁻¹ s⁻¹. In assay [8], this molecule showed a Kd of 60.1 nM, a koff of 0.00113 s⁻¹ and a kon of 21800 M⁻¹ s⁻¹. Also, the “OD450nm reduction (%)” value in assay [9] is below 50%. In assay [10], the “OD450nm reduction (%)” value is below 50%. Also, the IC50 with MiniBR3 peptide was 11 nM.

B10: chimeric 11G9 Fab (Fab, V domains shown)
VH: DVQLQESGPSLVKPSQTLSLTCSVTGDSITSGYWNWIRKFPGNKLEYMGYISYSGSTYYNPSLKSRISITRDTSKNQFYLQLLSVTTEDTATYYCAGLDGLYWYFDVWGAGTLVTVSS
VL: DIVMTQTPLSLPVSLGDQASISCRSSQSLVHSNGNTYLHWYLQKPGQSPKLLIYKVSNRFSGVPDRFSGSGSGTDFTLKISRVEAEDLGVYFCSQSTHVPPFTFGSGT
notes: Fab with murine variable domains; also called Ch 11G9 Fab
As for B10, in assay [1], the Kd is 19.5 nM and 23.5 nM; the koff is 0.0233 s⁻¹ and 0.0263 s⁻¹; the kon was 1.2e+06 M⁻¹ s⁻¹ and 1.12e+06 M⁻¹ s⁻¹. The molecule further registered a Kd in [3] above 100 nM. Besides, the affinity in assay [4], expressed as Kd, was 21.5 nM.
